In article PMC6328183:

Molecular target: FuBc protein (recombinant protein of the fusion loop and Bc loop of domain II of dengue envelope protein with their neighbouring residues) (DENV-2 (of the template structure PDB 1OAN))
Experiment: SPR; Biacore T200; FuBc immobilised by amine coupling; scFv injected at 10 uM down to 50 nM, 20 ul/min over 2 min; regeneration with 2 M NaCl; control flow cell subtracted; KD as kd/ka

Sequence of 3IXY scFv antibody (VH and VL of the anti-fusion loop dengue E53 Fab, PDB 3IXY, joined by a (G4S)3 linker) (VH): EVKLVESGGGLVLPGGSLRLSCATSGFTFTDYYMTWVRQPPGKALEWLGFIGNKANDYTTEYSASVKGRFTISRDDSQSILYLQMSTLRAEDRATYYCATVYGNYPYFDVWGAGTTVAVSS
Sequence of 3IXY scFv antibody (VH and VL of the anti-fusion loop dengue E53 Fab, PDB 3IXY, joined by a (G4S)3 linker) (VL): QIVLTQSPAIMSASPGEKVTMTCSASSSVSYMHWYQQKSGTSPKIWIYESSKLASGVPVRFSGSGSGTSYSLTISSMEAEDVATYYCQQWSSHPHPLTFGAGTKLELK

Work on “3IXY scFv antibody (VH and VL of the anti-fusion loop dengue E53 Fab, PDB 3IXY, joined by a (G4S)3 linker)” yielded a Kd of 2300 nM.
